Reference: the supplement of paper PMC6379048

Assays:
Experiment in all cases: EC50 of free RNA motif oligo competing protein binding to immobilised probe
[1] = target: T1, CELF1 (UniProt Q92879)
T1 sequence: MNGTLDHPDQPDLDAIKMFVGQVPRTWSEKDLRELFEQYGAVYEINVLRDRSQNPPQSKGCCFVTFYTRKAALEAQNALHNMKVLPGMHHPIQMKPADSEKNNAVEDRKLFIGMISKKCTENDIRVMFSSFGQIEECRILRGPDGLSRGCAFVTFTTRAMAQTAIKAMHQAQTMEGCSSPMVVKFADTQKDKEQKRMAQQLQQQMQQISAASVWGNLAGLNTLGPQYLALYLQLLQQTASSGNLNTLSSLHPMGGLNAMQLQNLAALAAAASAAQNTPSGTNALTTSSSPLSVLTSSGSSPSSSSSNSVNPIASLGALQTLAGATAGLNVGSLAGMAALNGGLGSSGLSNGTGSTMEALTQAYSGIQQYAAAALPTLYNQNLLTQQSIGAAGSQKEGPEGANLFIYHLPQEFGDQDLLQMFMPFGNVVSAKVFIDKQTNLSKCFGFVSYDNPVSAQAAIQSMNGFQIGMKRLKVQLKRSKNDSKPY
Procedure: (§1)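 Competition-binding assay: HEK293-FT cell lysate (2.5 mg protein) pre-incubated 1 h at 4°C with free motif-containing RNA oligos (0 to 30 µM, 12 doses), then pulled down with the same 5'-amino-C6 RNA oligos immobilised on NHS-Sepharose beads (30 min, 4°C). Bound proteins were quantified by label-free LC-MS/MS and normalised to the water control. EC50 came from a four-parameter log-logistic fit; Kd = EC50 x depletion factor. Random/reversed control probes are dropped.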

[2] = target: DHX15 (UniProt O43143)
Chain of DHX15 (O43143 whole entry): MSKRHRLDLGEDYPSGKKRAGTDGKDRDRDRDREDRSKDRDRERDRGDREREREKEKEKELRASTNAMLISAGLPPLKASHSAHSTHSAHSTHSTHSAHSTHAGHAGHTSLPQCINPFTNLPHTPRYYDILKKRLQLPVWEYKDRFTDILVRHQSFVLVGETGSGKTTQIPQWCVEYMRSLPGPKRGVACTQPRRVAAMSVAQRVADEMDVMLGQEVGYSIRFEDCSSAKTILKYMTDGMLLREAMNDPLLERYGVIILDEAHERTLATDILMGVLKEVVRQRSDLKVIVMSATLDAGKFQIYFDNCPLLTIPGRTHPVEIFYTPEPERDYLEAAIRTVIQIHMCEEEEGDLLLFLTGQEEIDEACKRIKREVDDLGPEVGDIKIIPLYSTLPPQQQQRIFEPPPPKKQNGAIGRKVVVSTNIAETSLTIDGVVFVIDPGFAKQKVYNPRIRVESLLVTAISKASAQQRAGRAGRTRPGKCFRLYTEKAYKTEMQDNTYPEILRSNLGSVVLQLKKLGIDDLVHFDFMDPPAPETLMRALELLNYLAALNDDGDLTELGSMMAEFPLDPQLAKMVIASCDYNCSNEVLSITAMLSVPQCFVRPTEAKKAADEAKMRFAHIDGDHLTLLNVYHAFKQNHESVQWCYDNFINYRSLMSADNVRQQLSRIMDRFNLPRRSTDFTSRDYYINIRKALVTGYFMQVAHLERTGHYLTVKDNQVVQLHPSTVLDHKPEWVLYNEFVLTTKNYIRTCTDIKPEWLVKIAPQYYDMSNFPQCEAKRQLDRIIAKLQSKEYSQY
Procedure: as §1

[3] = target: T2, HNRNPUL1 (UniProt Q9BUJ2)
T2 sequence: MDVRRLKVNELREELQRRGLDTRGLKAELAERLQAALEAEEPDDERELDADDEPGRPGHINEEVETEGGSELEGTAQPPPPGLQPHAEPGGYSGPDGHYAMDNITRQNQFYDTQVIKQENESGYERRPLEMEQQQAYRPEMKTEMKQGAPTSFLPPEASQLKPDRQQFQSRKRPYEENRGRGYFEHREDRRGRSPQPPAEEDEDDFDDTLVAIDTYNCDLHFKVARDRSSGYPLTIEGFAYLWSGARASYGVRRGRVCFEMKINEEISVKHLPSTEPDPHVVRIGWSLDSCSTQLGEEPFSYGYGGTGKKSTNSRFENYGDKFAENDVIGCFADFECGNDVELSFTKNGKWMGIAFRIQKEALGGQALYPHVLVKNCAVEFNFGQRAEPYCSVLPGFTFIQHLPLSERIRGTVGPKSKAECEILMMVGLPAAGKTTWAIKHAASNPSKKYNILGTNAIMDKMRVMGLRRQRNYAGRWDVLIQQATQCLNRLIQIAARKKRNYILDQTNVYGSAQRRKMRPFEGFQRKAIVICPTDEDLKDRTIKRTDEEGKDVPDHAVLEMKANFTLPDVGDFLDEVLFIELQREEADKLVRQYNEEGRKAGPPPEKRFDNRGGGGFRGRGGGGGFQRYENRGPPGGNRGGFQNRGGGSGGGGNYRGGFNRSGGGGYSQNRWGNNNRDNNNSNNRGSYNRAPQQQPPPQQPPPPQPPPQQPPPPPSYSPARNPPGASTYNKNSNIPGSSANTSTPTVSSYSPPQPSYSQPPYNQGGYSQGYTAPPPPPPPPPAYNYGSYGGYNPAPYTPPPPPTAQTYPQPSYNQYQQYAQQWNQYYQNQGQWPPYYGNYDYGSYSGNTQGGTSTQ
Procedure: as §1

[4] = target: T3, XRN2 (UniProt Q9H0D6)
T3 sequence: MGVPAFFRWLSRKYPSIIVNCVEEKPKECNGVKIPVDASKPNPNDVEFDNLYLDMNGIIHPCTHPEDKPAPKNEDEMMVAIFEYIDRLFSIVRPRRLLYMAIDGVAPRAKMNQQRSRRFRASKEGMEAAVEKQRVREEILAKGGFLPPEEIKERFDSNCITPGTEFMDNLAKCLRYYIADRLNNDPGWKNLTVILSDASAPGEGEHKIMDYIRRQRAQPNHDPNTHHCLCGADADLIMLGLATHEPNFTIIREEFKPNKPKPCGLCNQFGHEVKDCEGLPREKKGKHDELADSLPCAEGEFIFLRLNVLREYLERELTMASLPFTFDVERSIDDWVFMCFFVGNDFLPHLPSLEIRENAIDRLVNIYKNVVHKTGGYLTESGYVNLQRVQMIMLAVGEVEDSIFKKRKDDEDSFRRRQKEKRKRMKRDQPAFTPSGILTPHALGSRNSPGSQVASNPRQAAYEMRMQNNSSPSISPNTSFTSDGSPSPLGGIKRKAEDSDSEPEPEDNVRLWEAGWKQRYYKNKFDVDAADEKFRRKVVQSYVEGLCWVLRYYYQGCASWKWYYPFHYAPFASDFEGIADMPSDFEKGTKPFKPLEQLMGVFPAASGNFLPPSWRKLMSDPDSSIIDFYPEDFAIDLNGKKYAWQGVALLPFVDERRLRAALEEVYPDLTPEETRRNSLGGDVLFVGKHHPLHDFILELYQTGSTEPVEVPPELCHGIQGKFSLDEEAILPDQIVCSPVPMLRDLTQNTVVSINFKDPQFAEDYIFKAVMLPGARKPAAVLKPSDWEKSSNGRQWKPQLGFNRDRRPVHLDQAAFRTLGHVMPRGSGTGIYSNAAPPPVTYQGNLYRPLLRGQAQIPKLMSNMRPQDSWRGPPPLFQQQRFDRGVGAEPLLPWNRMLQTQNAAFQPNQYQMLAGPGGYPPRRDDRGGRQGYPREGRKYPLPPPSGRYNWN
Procedure: as §1

[5] = target: ZC3HAV1 (UniProt Q7Z2W4)
Chain of ZC3HAV1 (Q7Z2W4 whole entry): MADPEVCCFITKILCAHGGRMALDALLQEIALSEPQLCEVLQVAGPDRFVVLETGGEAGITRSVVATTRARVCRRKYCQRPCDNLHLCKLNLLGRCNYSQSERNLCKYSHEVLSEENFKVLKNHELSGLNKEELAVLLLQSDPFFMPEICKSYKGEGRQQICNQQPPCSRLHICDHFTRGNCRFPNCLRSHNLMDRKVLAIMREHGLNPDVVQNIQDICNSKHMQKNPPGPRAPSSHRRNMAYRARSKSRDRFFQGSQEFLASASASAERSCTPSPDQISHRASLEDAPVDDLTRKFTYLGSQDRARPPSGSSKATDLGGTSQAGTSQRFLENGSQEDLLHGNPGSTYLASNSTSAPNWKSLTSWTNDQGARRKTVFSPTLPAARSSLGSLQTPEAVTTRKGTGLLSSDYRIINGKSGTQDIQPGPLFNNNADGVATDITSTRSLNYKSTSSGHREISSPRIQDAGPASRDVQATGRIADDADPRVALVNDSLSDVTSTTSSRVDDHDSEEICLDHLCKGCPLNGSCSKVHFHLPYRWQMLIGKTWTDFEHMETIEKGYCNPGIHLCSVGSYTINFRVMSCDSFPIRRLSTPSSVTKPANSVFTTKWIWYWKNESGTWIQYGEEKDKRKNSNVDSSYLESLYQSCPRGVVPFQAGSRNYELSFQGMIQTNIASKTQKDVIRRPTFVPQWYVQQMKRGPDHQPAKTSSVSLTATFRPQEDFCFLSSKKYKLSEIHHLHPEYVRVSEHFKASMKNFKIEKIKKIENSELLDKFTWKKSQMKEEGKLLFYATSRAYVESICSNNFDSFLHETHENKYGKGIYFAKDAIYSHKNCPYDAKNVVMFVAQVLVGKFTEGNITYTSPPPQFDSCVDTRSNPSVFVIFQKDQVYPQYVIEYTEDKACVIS
Procedure: as §1

Sequence	EC50 [1] [nM]	EC50 [2] [nM]	EC50 [3] [nM]	EC50 [4] [nM]	EC50 [5] [nM]
UAUUUAU	555	576	643	409	5380
CUGUCCU	6720	757	152	147	1320
AAUAAA	667	2150	1410	843	3900
